Paper PMC3050594 (Nature structural & molecular biology, 2010)

Molecular target: RSV F0 Fd glycoprotein (Human respiratory syncytial virus; …, UniProt P03420, stabilised, glycosylated)
Assay: SEC

B1: palivizumab Fab (Fab, V domains shown)
VH: QVTLRESGPALVKPTQTLTLTCTFSGFSLSTSGMSVGWIRQPPGKALEWLADIWWDDKKDYNPSLKSRLTISKDTSKNQVVLKVTNMDPADTATYYCARSMITNWYFDVWGAGTTVTVSS
VL: DIQMTQSPSTLSASVGDRVTITCKCQLSVGYMHWYQQKPGKAPKLLIYDTSKLASGVPSRFSGSGSGTEFTLTISSLQPDDFATYYCFQGSGYPFTFGGGTKLEIK
With B1 the “stoichiometry N” value was 2.97 Fabs per trimer.
